Measured values reported in the Human Domainome abundance scans (Beltran et al. 2025).

B1: Glucocorticoid receptor, residues 419 to 494; numbered along this chain, P04150 (parent)
chain: KLCLVCSDEASGCHYGVLTCGSCKVFFKRAVEGQHNYLCAGRNDCIIDKIRRKNCPACRYRKCLQAGMNLEARKTK
B2: Ventral anterior homeobox 1, residues 102 to 157; numbered along this chain, Q5SQQ9 (parent)
chain: RTRTSFTAEQLYRLEMEFQRCQYVVGRERTELARQLNLSETQVKVWFQNRRTKQKK

Variants of: B1
Assay: abundance fitness (aPCA) (normalised: wild type 0, dead -1); higher = more abundant; growth selection in yeast, the domain comes from the species named
Details: Homo sapiens

Abundance fitness, by site and new letter:
L18: F -0.002
A72: R -0.054, K 0.049
K53: S -0.009
A40: T -0.067, N -0.024
R42: A 0.01
G41: T -0.04
C6: A -0.964, W -1.03
K62: S -0.166
P56: K -0.108
R59: E -0.583
C45: E -0.762
F26: A -0.877

Variants of: B2
Assay: as above
Details: Homo sapiens

Abundance fitness of substitutions, site by site:
R1: C 0.058, E -0.025, G -0.002, I 0.024, M 0.083, S -0.042, T -0.465
T2: C -1.01, D -0.034, E -0.012, F -0.3, G 0.013, H -0.38, K -0.202, L -0.406, M -0.128, N 0.271, P -0.098, Q 0.135, R -0.166, S -0.074, W -0.566, Y -0.335
R3: A 0.002, C 0.211, D 0.326, F 0.209, G 0.223, H 0.229, I 0.251, K 0.168, L 0.156, M 0.279, N 0.268, P 0.164, Q 0.084, S 0.266, V 0.096, W 0.054, Y 0.071
T4: A -0.188, C -0.165, D -0.14, E 0.169, F -0.347, G -0.269, H -0.49, I -0.193, K -0.079, L 0.205, M 0.107, N 0.033, P -0.074, Q -0.11, R -0.35, S -0.058, V -0.092, W -0.095
S5: C -0.225, D 0.262, E 0.326, G -0.002, H -0.224, I -0.177, K -0.747, L -0.179, M 0.08, Q 0.028, R -0.597, W -0.189, Y -0.013
F6: A -0.616, C -0.536, D -0.445, E -0.559, G -0.427, H -0.283, I -0.089, K -0.42, L -0.029, M 0.049, N -0.43, P -0.337, Q -0.347, R -0.71, S -0.729, T -0.556, V -0.105, W -0.052
T7: A -0.411, C -0.335, D -0.043, E -0.279, F -0.77, G -0.311, H -0.407, I -0.56, K -0.589, L -0.704, M -0.452, N -0.105, P -0.734, R -0.499, S -0.158, V -0.466, W -0.925, Y -0.652
A8: C -0.212, E 0, F -0.473, G -0.205, H -0.817, I -0.363, L -0.14, M -0.104, N 0.059, P -0.049, Q -0.301, R -0.332, S -0.064, V -0.154, W -0.348, Y -0.158
E9: A -0.244, C -0.299, D -0.135, F 0.005, H -0.509, I -0.456, K -0.453, L -0.439, M -0.235, N -0.733, P -0.669, Q -0.207, R -0.455, S -0.408, T -0.464, V -0.157, W -0.12, Y -0.398
L11: A -0.075, D 0.022, E 0.308, F -0.159, G -0.254, H 0.005, I -0.059, K -0.274, M -0.172, N 0.18, P -0.893
